Test results: publication PMC3764826, “Bpur, the Lyme Disease Spirochete's PUR Domain Protein”

Tests used:
Bpur [1] = target: T1, Bpur (Borrelia burgdorferi B31, UniProt O51076 1-122); assay: EMSA; simultaneous with Bio-2; EMSA: 50 mM Tris pH 7.5, 25 mM KCl, 1 mM MgCl2, 100 nM DTT, 10% glycerol, 0.01% Tween 20, 0.1% PMSF; temperature not stated; RNA/ssDNA probes preheated at 56 C, RiboGuard with RNA; details: protein: recombinant; tags: His tag (pET101, nickel purification); chain copies: 2; label: 5' biotin
T1 sequence: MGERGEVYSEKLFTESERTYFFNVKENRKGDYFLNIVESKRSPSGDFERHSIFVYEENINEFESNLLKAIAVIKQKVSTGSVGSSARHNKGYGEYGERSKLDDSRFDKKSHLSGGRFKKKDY

Bpur [2] = target: T1, Bpur; assay: EMSA; 50-500 nM Bpur; EMSA: 50 mM Tris pH 7.5, 25 mM KCl, 1 mM MgCl2, 100 nM DTT, 10% glycerol, 0.01% Tween 20, 0.1% PMSF; temperature not stated; RNA/ssDNA probes preheated at 56 C, RiboGuard with RNA; details: protein: recombinant; tags: His tag (pET101, nickel purification); chain copies: 2; label: 5' biotin
Bpur [3] = target: T1, Bpur; assay: EMSA; simultaneous with Bio-3; EMSA: 50 mM Tris pH 7.5, 25 mM KCl, 1 mM MgCl2, 100 nM DTT, 10% glycerol, 0.01% Tween 20, 0.1% PMSF; temperature not stated; RNA/ssDNA probes preheated at 56 C, RiboGuard with RNA; details: protein: recombinant; tags: His tag (pET101, nickel purification); chain copies: 2; label: 5' biotin
Bpur [4] = target: T1, Bpur; assay: EMSA; EMSA: 50 mM Tris pH 7.5, 25 mM KCl, 1 mM MgCl2, 100 nM DTT, 10% glycerol, 0.01% Tween 20, 0.1% PMSF; temperature not stated; RNA/ssDNA probes preheated at 56 C, RiboGuard with RNA; details: protein: recombinant, tags: His tag (pET101, nickel purification), chain copies: 2
Bpur [5] = target: T1, Bpur; assay: competition; 100-fold excess vs Bio-1; EMSA: 50 mM Tris pH 7.5, 25 mM KCl, 1 mM MgCl2, 100 nM DTT, 10% glycerol, 0.01% Tween 20, 0.1% PMSF; temperature not stated; RNA/ssDNA probes preheated at 56 C, RiboGuard with RNA; details: protein: recombinant; tags: His tag (pET101, nickel purification); chain copies: 2

B1: Bio-3 (dsDNA)
DNA 1: GGAGAGATTTTGGGGAGTTGTTTAAAATTACATTTGCGTTTTGTTAAAATGTAAC
DNA 2: GTTACATTTTAACAAAACGCAAATGTAATTTTAAACAACTCCCCAAAATCTCTCC
Q: Does B1 bind (Bpur [1])?
A: binds

B2: Bio-1 (dsDNA)
DNA 1: GAGTAGTGCATTTGCAATGGAGAGATTTTGGGGAGTTGTTTAAAATTACATTTGCGTTTTGTTAAAATGTAACAGCTGAATGTAACAAAATTATATATTTAAATCTTGAAATA
DNA 2: TATTTCAAGATTTAAATATATAATTTTGTTACATTCAGCTGTTACATTTTAACAAAACGCAAATGTAATTTTAAACAACTCCCCAAAATCTCTCCATTGCAAATGCACTACTC
Q: Does B2 bind (Bpur [2])?
A: binds

B3: Bio-2 (dsDNA)
DNA 1: TAAAATTACATTTGCGTTTTGTTAAAATGTAACAGCTGAATGTAAC
DNA 2: GTTACATTCAGCTGTTACATTTTAACAAAACGCAAATGTAATTTTA
Q: Does B3 bind (Bpur [3])?
A: no binding

B4: Bio-dsDNA (dsDNA)
DNA 1: AATGGAGAGATTTTGGGGAGTTGTTTAAAATTACATTTGCGTTTTGTTAAAATG
DNA 2: CATTTTAACAAAACGCAAATGTAATTTTAAACAACTCCCCAAAATCTCTCCATT
Q: With B4 as the binder, how does the Kd (Bpur [4]; label: 5' biotin (one strand), blunt) read?
A: 130 nM

B5: Bio-sense-ssDNA (ssDNA)
DNA: AATGGAGAGATTTTGGGGAGTTGTTTAAAATTACATTTGCGTTTTGTTAAAATG
Q: Which Kd (Bpur [4]; label: 5' biotin) does the source give for B5 here?
A: 390 nM

B6: Bio-sense-RNA (ssRNA)
RNA: AAUGGAGAGAUUUUGGGGAGUUGUUUAAAAUUACAUUUGCGUUUUGUUAAAAUG
Q: B6 was tested. Which Kd (Bpur [4]; label: 5' biotin) did it give?
A: 13 nM

B7: competitor C (dsDNA)
DNA 1: GTAGTGCATTTGCAATGGAGAGATTTTGGGGAGTTGTTTAAAATTAC
DNA 2: GTAATTTTAAACAACTCCCCAAAATCTCTCCATTGCAAATGCACTAC
Q: Does B7 bind (Bpur [5])?
A: binds
